Source: article PMC10403255, “Two RNA-binding proteins mediate the sorting of miR223 from mitochondria into exosomes”

Key:
Test in all cases: EMSA; 25 mM Tris pH 8.0, 100 mM KCl, 1.5 mM MgCl2, 0.2 mM EGTA, 0.05% Nonidet P-40, 1 mM DTT, 5% glycerol, 50 ug/ml heparin; 30 C 30 min, then ice 10 min; 1 nM RNA; 6% native PAGE in cold room
YBX1 [1] = molecular target: T1, YBX1 (UniProt P67809 1-324); conditions: protein: recombinant; tags: His6-MBP (N-terminal vector tag); label: 5'-IRD800CWN
YBX1 [2] = molecular target: T1, YBX1; conditions: protein: recombinant; tags: His6-MBP (N-terminal vector tag); label: 5'-IRD800CWN; remark: listed apart in the source
YBAP1 = YBAP1 (UniProt Q07021 74-282); conditions: protein: recombinant; tags: His6-MBP; chain copies: 3; label: 5'-IRD800CWN
Chain of YBAP1 (Q07021 74-282): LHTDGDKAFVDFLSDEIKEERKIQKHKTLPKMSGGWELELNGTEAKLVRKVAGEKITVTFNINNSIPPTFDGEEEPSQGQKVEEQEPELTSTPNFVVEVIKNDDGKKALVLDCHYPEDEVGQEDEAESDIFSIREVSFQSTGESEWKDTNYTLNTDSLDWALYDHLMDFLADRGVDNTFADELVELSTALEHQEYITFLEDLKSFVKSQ

YBX1 [3] = molecular target: T1, YBX1; conditions: protein: recombinant; tags: His6-MBP (N-terminal vector tag); label: 5'-IRD800CWN; remark: listed apart in the source
YBX1(F85A) = YBX1(F85A) (UniProt P67809 1-324, F85A); conditions: protein: recombinant; tags: His6-MBP; label: 5'-IRD800CWN
Chain of YBX1(F85A) (P67809 whole entry F85A): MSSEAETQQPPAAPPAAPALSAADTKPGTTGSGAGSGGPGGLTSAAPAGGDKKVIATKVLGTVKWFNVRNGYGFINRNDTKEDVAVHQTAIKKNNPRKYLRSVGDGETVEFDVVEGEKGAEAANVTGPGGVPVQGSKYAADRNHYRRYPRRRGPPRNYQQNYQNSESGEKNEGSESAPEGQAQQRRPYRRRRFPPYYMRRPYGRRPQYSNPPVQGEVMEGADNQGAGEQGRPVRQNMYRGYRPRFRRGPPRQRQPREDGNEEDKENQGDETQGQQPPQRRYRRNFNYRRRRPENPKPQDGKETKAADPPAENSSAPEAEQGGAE

T1 sequence (P67809 whole entry): as the sequence (P67809 whole entry F85A) above, with A85F counted along it

| Binder | binding signal (YBX1 [1]) | binding signal (YBX1 [2]) [fold weaker than miR223] | binding result (YBAP1) | Kd (YBX1 [3]) [nM] | binding result (YBX1(F85A)) |
| --- | --- | --- | --- | --- | --- |
| UGUCAGUUUUGAUAUAUUAGGU (ssRNA) [miR190sort] | ~8 fold stronger than miR190 | – | – | – | – |
| UGAGACAUUGUCAAAUACCCCA (ssRNA) [miR223mut] | ~27 fold weaker than miR223 | – | – | – | – |
| UGAUAUGUUUGAUAUAUUAGGU (ssRNA) [miR190 (hsa-miR-190-5p)] | – | ~140 | no binding | – | – |
| UGUCAGUUUGUCAAAUACCCCA (ssRNA) [miR223 (hsa-miR-223-3p)] | – | – | binds | 4.2 | no binding |
